Assays:
[1] = target: HLA-A*02:01; experiment: IEDB peptide-MHC binding, purified MHC/competitive/fluorescence; ≥ and ≤ were set here for values at or beyond the usual limits of such assays
[2] = target: HLA-A*32:01; experiment: IEDB peptide-MHC binding, purified MHC/competitive/radioactivity; filed as Kd, often an IC50 or EC50 that approximates it; ≥ and ≤ were set here for values at or beyond the usual limits of such assays
[3] = target: HLA-B*08:01; experiment: as above
[4] = target: HLA-A*11:01; experiment: IEDB peptide-MHC binding, purified MHC/direct/fluorescence; filed as Kd, often an IC50 or EC50 that approximates it; ≥ and ≤ were set here for values at or beyond the usual limits of such assays; conditions: source organism: SARS-CoV1
[5] = target: HLA-B*07:02; experiment: as above
[6] = target: HLA-A*23:01; experiment: IEDB peptide-MHC binding, purified MHC/competitive/radioactivity; filed as Kd, often an IC50 or EC50 that approximates it; ≥ and ≤ were set here for values at or beyond the usual limits of such assays
[7] = target: HLA-A*29:02; experiment: as above
[8] = target: HLA-A*24:02; experiment: as above
[9] = target: HLA-A*30:02; experiment: as above
[10] = target: HLA-A*01:01; experiment: as above
[11] = target: HLA-A*26:01; experiment: as above
[12] = target: HLA-A*69:01; experiment: IEDB peptide-MHC binding, purified MHC/direct/fluorescence; filed as Kd, often an IC50 or EC50 that approximates it; ≥ and ≤ were set here for values at or beyond the usual limits of such assays
[13] = target: HLA-A*02:01; experiment: as above
[14] = target: HLA-B*15:01; experiment: as above
[15] = target: HLA-A*11:01; experiment: IEDB peptide-MHC binding, purified MHC/competitive/radioactivity; filed as Kd, often an IC50 or EC50 that approximates it; ≥ and ≤ were set here for values at or beyond the usual limits of such assays; conditions: source organism: SARS coronavirus Tor2
[16] = target: HLA-A*33:01; experiment: as above; conditions: source organism: SARS coronavirus Tor2
[17] = target: HLA-A*31:01; experiment: as above; conditions: source organism: SARS coronavirus Tor2
[18] = target: HLA-A*68:01; experiment: as above; conditions: source organism: SARS coronavirus Tor2
[19] = target: HLA-A*03:01; experiment: as above; conditions: source organism: SARS coronavirus Tor2
[20] = target: HLA-B*58:01; experiment: IEDB peptide-MHC binding, purified MHC/direct/fluorescence; filed as Kd, often an IC50 or EC50 that approximates it; ≥ and ≤ were set here for values at or beyond the usual limits of such assays; conditions: source organism: Pasteurella multocida
[21] = target: HLA-A*03:01; experiment: as above; conditions: source organism: Pasteurella multocida
[22] = source organism: Dengue virus 3 Martinique/1243/1999
[23] = source organism: Vaccinia virus WR
[24] = source organism: SARS coronavirus Tor2
[25] = source organism: Zaire ebolavirus
[26] = source organism: Vaccinia virus Copenhagen
[27] = source organism: Haemophilus influenzae
[28] = source organism: Dengue virus 4 Philippines/H241/1956
[29] = source organism: Rickettsia conorii
[30] = source organism: Pasteurella multocida
[31] = source organism: Lassa virus Josiah
[32] = source organism: Influenza A virus (A/Wilson-Smith/1933(H1N1))

TLVGVVVST gave an IC50 ([1]; source organism: Vaccinia virus) of 55400 nM.

In the case of TAIAGAWENG, the Kd [2, 22] is reported as at least 60500 nM.

In the case of CIVNKFMSF, the Kd [3, 23] is reported as 60.4 nM.

TPSGTWLTY was tested, and the Kd [4] was 4570 nM, the Kd ([5]; source organism: SARS-CoV1) was 7020 nM and the Kd [6, 24] was at least 77800 nM. For the same sequence, the Kd [7, 24] was 55.5 nM, the Kd [8, 24] was at least 77600 nM and the Kd [9, 24] was 11800 nM. The Kd [10, 24] was at least 79400 nM and the Kd [11, 24] was 18600 nM.

LDISEATQV gave an IC50 [1, 25] of at least 72600 nM.

Sequence SIKMKLVSI has a Kd [3, 26] of 16.4 nM.

For PVSAMVRMY, the Kd [6, 24] was at least 39200 nM, the Kd [7, 24] was 2730 nM and the Kd [8, 24] was at least 40900 nM. The Kd [9, 24] was 9130 nM, the Kd [10, 24] was 11400 nM and the Kd [11, 24] was at least 36700 nM.

With ASKVFFGPI the Kd [3, 23] was 12800 nM.

NCSSISIKL showed an IC50 [1, 26] of at least 437000 nM.

Work on GTFLCANEY yielded a Kd [6, 24] of at least 36400 nM, a Kd [7, 24] of 3.83 nM and a Kd [8, 24] of 11400 nM. The Kd [9, 24] was 0.406 nM, the Kd [10, 24] was 97.4 nM and the Kd [11, 24] was 262 nM.

For ELDHLGLDD, the IC50 [1, 25] was at least 513000 nM.

In the case of IMLVYCFLGY, the Kd [6, 24] is reported as at least 70000 nM, the Kd [7, 24] is reported as 3.05 nM and the Kd [8, 24] is reported as at least 70300 nM. It also gave a Kd [9, 24] of 211 nM, a Kd [10, 24] of at least 31500 nM and a Kd [11, 24] of at least 42700 nM.

AILGVLATL gave a Kd [12, 27] of 238 nM, a Kd [13, 27] of 316 nM and a Kd [14, 27] of 18500 nM. The Kd [5, 27] was 12700 nM.

In the case of LKKNKAIKIL, the Kd [3, 28] is reported as 11000 nM.

QLAYVVIGIL showed a Kd [3, 22] of at least 10000 nM.

YFSDVSAPV gave a Kd [12, 29] of 41 nM, a Kd [13, 29] of 27.9 nM and a Kd [14, 29] of 704 nM.

Work on VNPGTYVYF yielded an IC50 ([1]; source organism: Variola virus) of at least 186000 nM.

In the case of STGNYNYKY, the Kd [6, 24] is reported as at least 77800 nM, the Kd [7, 24] is reported as 37.2 nM and the Kd [15] is reported as 198 nM. It also gave a Kd [8, 24] of at least 77600 nM, a Kd [16] of at least 77700 nM and a Kd [17] of at least 77900 nM. The Kd [9, 24] was 24.5 nM, the Kd [18] was 1600 nM and the Kd [10, 24] was 388 nM. For the same sequence, the Kd [11, 24] was 15600 nM and the Kd [19] was at least 20400 nM.

In the case of KSTDFLDPA, the IC50 [1, 25] is reported as 5050 nM.

For ITQFETYQL, the Kd [2, 22] was 1630 nM.

Sequence ASFYYIWKSY has a Kd [6, 24] of at least 32100 nM, a Kd [7, 24] of 71.4 nM and a Kd [8, 24] of at least 28600 nM. For the same sequence, the Kd [9, 24] was 0.481 nM, the Kd [10, 24] was 3110 nM and the Kd [11, 24] was 2100 nM.

With ILYVSCNPA the Kd [12, 30] was 572 nM, the Kd [14, 30] was 748 nM and the Kd [20] was 572 nM. It also gave a Kd [21] of 402 nM.

With FTNAGIVAY the Kd [2, 23] was 149 nM.

EQMAPHHKIL was tested, and the Kd [3, 28] was 59.7 nM.

Sequence LAKLTEAIT has an IC50 [1, 25] of 68400 nM.

SLRYSSKVF showed a Kd [3, 23] of 928 nM.

KTIFLSEPY was tested, and the Kd [2, 23] was 2.9 nM.

With YCNYSKYWYL the Kd [6, 31] was 1150 nM, the Kd [7, 31] was 10800 nM and the Kd [8, 31] was 4440 nM. It also gave a Kd [9, 31] of at least 22700 nM, a Kd [10, 31] of 9730 nM and a Kd [11, 31] of at least 69700 nM.

Work on EPIKHKYPL yielded a Kd [3, 23] of 1.27 nM.

Work on GTFKKSGAI yielded a Kd [2, 22] of 4930 nM.

With SLNLRIKIL the Kd [3, 23] was 92 nM.

ITYEKSNNI was tested, and the Kd [2, 23] was 17.5 nM.

With DQHGRMNYYW the Kd [6, 32] was 1110 nM, the Kd [7, 32] was 2170 nM and the Kd [8, 32] was 1470 nM. For the same sequence, the Kd [9, 32] was at least 69800 nM, the Kd [10, 32] was at least 70400 nM and the Kd [11, 32] was 661 nM.

Sequence AMVRMYIFF has a Kd [6, 24] of 214 nM, a Kd [7, 24] of 452 nM and a Kd [8, 24] of 4460 nM. The Kd [9, 24] was at least 71100 nM, the Kd [10, 24] was 18700 nM and the Kd [11, 24] was 7440 nM.

For IFWRNTNPI, the Kd [6, 24] was 9150 nM, the Kd [7, 24] was at least 35200 nM and the Kd [8, 24] was at least 31500 nM. For the same sequence, the Kd [9, 24] was at least 78900 nM, the Kd [10, 24] was at least 78100 nM and the Kd [11, 24] was at least 77900 nM.

In the case of RVRFFFPSL, the IC50 ([1]; source organism: Homo sapiens) is reported as at least 200000 nM.

Work on SLREISNIV yielded a Kd [3, 23] of 10.2 nM.

With AIIAIVFVF the Kd [2, 23] was 14100 nM.

For DLAAGVDVV, the Kd [12, 29] was 1460 nM and the Kd [13, 29] was 3240 nM.

From the Immune Epitope Database (IEDB)
